The values below come from publication PMC3942486 (2014).

The test concerns the target BCL6-POZ domain (residues 7 to 128 of human BCL6, C8Q, C67R, C84N) (human, UniProt P41182 7-128, cysteine8 mutated to glutamine | cysteine67 mutated to arginine | cysteine84 …). The experiment in a line: FP.

B1: homophenylalanine-SMRT peptide, labelled with BODIPY TMR (peptide)
chain: LVATVKEAGRSIXEIPR
modifications: homophenylalanine in place of histidine1426; BODIPY TMR dye coupled via the amino-terminal cysteine
Turning to B1, the Kd came to 43 µM.

B2: styryl-SMRT peptide, labelled with BODIPY TMR (peptide)
chain: LVATVKEAGRSIXEIPR
modifications: styrylalanine in place of histidine1426; BODIPY TMR dye coupled via the amino-terminal cysteine
Molecule B2 displayed a Kd of 41 µM.
